T1: CMV pp65 peptide on HLA-A*11:01 (human)
T1 peptide: ATVQGQNLK


Columns and labels:
[1] = biological target: T1, CMV pp65 peptide on HLA-A*11:01; test: multimer staining
[2] = biological target: CMV pp65501-509 antigen complex on Caki-2-PP65 target cells (human; human cytomegalovirus, UniProt P61769 21-119); test: cell-based or functional assay

Binder	binding result [1]	killing activity at 4 h (RTCA), Caki-2-PP65 target cells, effector-to-target ratio 1:1 [2]	killing activity at 4 h (RTCA), Caki-2-PP65 target cells, effector-to-target ratio 5:1 [2]	killing activity at 4 h (RTCA), Caki-2-PP65 target cells, effector-to-target ratio 10:1 [2]	killing activity at 4 h (RTCA), Caki-2-PP65 target cells, effector-to-target ratio 5:1 (ratio cell blank in this row, taken from r7) [2]
Tenth group of TCR (TCR, V domains shown) Valpha: AQTVTQSQPEMSVQEAETVTLSCTYDTSESDYYLFWYKQPPSRQMILVIRQEAYKQQNATENRFSVNFQKAAKSFSLKISDSQLGDAAMYFCAYRSFYTGANSKLTFGKGITLSVRP Vbeta: DAGVTQSPTHLIKTRGQQVTLRCSPKSGHDTVSWYQQALGQGPQFIFQYYEEEERQRGNFPDRFSGHQFPNYSSELNVNALLLGDSALYLCASSLYGGPGDQPQHFGDGTRLSIL	recognises				
Ninth group of TCR (TCR, V domains shown) V domain 1: EDQVTQSPEALRLQEGESSSLNCSYTVSGLRGLFWYRQDPGKGPEFLFTLYSAGEEKEKERLKATLTKKESFLHITAPKPEDSATYLCVITTSGTYKYIFGTGTRLKVLA V domain 2: NAGVTQTPKFQVLKTGQSMTLQCAQDMNHNSMYWYRQDPGMGLRLIYYSASEGTTDKGEVPNGYNVSRLNKREFSLRLESAAPSQTSVYFCASTINTYEQYFGPGTRLTVTE		7.1%	44.5%	61.5%	
Ninth group of TCR (TCR, V domains shown) Valpha: EDQVTQSPEALRLQEGESSSLNCSYTVSGLRGLFWYRQDPGKGPEFLFTLYSAGEEKEKERLKATLTKKESFLHITAPKPEDSATYLCVITTSGTYKYIFGTGTRLKVLA Vbeta: NAGVTQTPKFQVLKTGQSMTLQCAQDMNHNSMYWYRQDPGMGLRLIYYSASEGTTDKGEVPNGYNVSRLNKREFSLRLESAAPSQTSVYFCASTINTYEQYFGPGTRLTVT	recognises				
Tenth group of TCR (TCR, V domains shown) V domain 1: QTVTQSQPEMSVQEAETVTLSCTYDTSESDYYLFWYKQPPSRQMILVIRQEAYKQQNATENRFSVNFQKAAKSFSLKISDSQLGDAAMYFCAYRSFYTGANSKLTFGKGITLSVRP V domain 2: DAGVTQSPTHLIKTRGQQVTLRCSPKSGHDTVSWYQQALGQGPQFIFQYYEEEERQRGNFPDRFSGHQFPNYSSELNVNALLLGDSALYLCASSLYGGPGDQPQHFGDGTRLSILE		23.5%		67.4%	61.2%
